{"source": "patent US6537785", "key": {"[1]": {"biological_target": "uteroferrin (UniProt P09889)", "sequence (P09889 22-340)": "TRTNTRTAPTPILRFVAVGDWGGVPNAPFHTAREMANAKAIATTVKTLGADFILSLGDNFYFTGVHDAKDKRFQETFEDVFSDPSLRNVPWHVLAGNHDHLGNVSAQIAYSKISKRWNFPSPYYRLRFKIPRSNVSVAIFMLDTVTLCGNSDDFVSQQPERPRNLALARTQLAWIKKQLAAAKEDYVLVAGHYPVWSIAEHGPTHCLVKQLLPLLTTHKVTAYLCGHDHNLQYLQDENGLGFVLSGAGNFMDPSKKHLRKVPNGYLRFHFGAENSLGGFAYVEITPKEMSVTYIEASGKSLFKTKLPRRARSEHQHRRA"}, "[2]": {"biological_target": "RNAse B (UniProt P61823)", "sequence (P61823 27-150)": "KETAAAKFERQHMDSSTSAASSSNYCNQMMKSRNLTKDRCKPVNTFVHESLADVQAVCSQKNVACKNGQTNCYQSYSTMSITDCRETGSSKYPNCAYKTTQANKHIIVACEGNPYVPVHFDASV"}, "[3]": {"test_system": "cathepsin D"}}}
{"substance": "bovine GlcNAc-phosphotransferase (UDP-N-acetylglucosamine: lysosomal enzyme N-Acetylglucosamine-1-phosphotransferase)", "values": [{"measurement": "Km (transfer of GlcNAc-1-P to glycoprotein acceptor)", "setting": "[1]", "result": "Kms below 20 µM"}, {"measurement": "Km (transfer of GlcNAc-1-P to glycoprotein acceptor)", "setting": "[2]", "result": "the Km was not reached at the solubility limit of the protein (at 600 µM)"}, {"measurement": "Km (transfer of GlcNAc-1-P to glycoprotein acceptor)", "setting": "[3]", "result": "Kms below 20 µM"}]}
